Reference: publication PMC2880590
Like-named read-outs stand apart in the source and are kept apart here.

Columns and labels:
[1] = target: activated platelet integrin αIIbβ3 (human (endogenous in platelets)) (UniProt P08514)
[2] = target: contortrostatin (CN), native (Agkistrodon contortrix contortrix); assay: fluorescence polarisation; differing concentrations of purified soluble integrin with a constant amount of FITC-labelled CN or VCN, in solution, steady state; Scatchard analysis and non-linear curve fit
[3] = target: vicrostatin (VCN) (Agkistrodon contortrix contortrix (southern copperhead venom gland cDNA library) | not stated); assay: as above
[4] = target: contortrostatin (CN), native (Agkistrodon contortrix contortrix); assay: fluorescence polarisation
[5] = target: vicrostatin (VCN) (Agkistrodon contortrix contortrix (southern copperhead venom gland cDNA library) | not stated); assay: fluorescence polarisation
[6] = target: activated platelet integrin αIIbβ3 (human (endogenous in platelets)) (UniProt P08514); remark: listed apart in the source

Sequence of UniProt P08514 (P08514 32-1039, chain 1 of 2): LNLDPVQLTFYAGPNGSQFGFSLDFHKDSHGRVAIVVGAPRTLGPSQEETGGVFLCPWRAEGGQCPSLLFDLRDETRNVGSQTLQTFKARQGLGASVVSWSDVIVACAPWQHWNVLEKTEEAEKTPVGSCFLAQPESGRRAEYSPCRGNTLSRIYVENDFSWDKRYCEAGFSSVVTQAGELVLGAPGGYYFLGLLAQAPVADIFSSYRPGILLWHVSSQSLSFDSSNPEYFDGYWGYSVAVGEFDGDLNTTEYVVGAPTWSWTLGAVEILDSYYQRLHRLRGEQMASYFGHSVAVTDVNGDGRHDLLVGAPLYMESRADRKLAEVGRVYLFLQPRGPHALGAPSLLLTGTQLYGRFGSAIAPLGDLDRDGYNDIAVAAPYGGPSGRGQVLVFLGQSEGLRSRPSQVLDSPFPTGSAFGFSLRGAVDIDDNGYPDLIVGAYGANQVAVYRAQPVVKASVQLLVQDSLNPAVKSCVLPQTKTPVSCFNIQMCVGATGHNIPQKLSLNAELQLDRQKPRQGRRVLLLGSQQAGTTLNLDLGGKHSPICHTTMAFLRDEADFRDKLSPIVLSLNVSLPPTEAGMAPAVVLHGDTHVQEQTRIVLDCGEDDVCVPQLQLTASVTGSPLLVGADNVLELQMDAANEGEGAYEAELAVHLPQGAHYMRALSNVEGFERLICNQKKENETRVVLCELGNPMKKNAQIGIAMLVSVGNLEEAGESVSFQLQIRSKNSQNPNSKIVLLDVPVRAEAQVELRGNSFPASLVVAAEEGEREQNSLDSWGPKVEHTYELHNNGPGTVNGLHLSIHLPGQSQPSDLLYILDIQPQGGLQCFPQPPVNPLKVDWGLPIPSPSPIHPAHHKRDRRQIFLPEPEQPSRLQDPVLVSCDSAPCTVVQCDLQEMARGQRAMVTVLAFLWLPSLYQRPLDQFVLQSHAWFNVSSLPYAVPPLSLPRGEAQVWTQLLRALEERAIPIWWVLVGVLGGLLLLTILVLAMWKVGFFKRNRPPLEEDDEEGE
Sequence of UniProt P08514 (P05106 27-788, chain 2 of 2, further chain): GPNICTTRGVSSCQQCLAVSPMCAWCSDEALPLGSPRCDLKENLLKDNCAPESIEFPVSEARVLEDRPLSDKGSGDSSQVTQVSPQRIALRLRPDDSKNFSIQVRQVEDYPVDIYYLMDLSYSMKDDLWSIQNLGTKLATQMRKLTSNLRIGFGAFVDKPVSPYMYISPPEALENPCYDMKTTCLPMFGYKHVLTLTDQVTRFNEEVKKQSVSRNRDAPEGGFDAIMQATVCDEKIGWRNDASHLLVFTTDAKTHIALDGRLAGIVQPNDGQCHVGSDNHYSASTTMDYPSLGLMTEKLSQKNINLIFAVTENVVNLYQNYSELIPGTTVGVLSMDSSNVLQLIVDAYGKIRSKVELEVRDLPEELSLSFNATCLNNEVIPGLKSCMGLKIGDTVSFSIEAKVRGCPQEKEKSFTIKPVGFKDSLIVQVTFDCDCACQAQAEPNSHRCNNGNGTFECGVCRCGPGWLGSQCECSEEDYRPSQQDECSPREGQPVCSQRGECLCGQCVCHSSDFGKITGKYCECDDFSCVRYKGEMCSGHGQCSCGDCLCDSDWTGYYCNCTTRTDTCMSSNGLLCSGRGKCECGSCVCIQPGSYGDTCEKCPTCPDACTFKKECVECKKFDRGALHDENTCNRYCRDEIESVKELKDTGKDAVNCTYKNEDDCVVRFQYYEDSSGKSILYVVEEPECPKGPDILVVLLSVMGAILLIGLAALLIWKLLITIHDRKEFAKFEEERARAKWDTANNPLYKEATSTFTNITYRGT

Row | Substance | Kd [4] [nM] | Kd [5] [nM] | other results
1 | contortrostatin (CN), native (natural protein) | – | – | IC50 of inhibition of ADP-induced platelet aggregation in human platelet-rich plasma (blocks fibrinogen binding to αIIbβ3) [1]: 60 nM
2 | purified soluble integrin αvβ3 (from UniProt P06756 31-1048; P05106 27-718) (receptor) | – | – | Kd [2]: 6.6 nM; Kd [3]: 7.4 nM
3 | purified soluble integrin αvβ5 (from UniProt P06756 31-1048; P18084 24-719) (receptor) | 19.5 | 41.2 | –
4 | soluble recombinant integrin α5β1 (from UniProt P08648 42-1049; P05556 21-728) (receptor) | 191 | 15.2 | –
5 | vicrostatin (VCN) (ligand) | – | – | IC50 of inhibition of ADP-induced platelet aggregation in human platelet-rich plasma (blocks fibrinogen binding to αIIbβ3) [6]: 60 nM
